Here are results for five molecules from US6051698, “Vascular endothelial growth factor (VEGF) nucleic acid ligand complexes”.

The target of series [1] is T1, VEGF165 (Homo sapiens, UniProt P15692-4 P15692-4:27-191). Briefly: filter; EDTA, no divalents; Mg2+ does not rescue, Ca2+ fully restores. The conditions noted are these: tags: R&D Systems, expressed in Sf21 insect cells, carrier-free; chain copies: 2.
In series [2] the target is T1, VEGF165. Briefly: filter; 37 C. The conditions noted are these: tags: R&D Systems, expressed in Sf21 insect cells, carrier-free; chain copies: 2. As to the method: Nucleic Acid Ligands radiolabeled during transcription by incorporation of α-[^32P]-labeled NTPs, or after synthesis using γ-[^32P]-ATP and T4 polynucleotide kinase, were incubated in low concentration (between 20 and 70 pM) with varying concentrations of VEGF or other growth factors at 37° C. for 15 minutes. Incubations were in TBS, PBS, or HEPES-buffered saline (HBS), pH 7.4, with or without the addition of supplemental divalent cations. Samples were passed through prewashed 0.45μ Type HA filters (Millipore) followed by a 5–10 ml wash with binding buffer. Filters were immersed in scintillant and counted to quantitate the amount of protein-bound RNA retained by each filter. The equilibrium dissociation constant (K_D) of Nucleic Acid Ligand binding to a specific protein was calculated from thc data points as described in Green et al. (1996) Biochem. 35: 14413–14424.

T1 sequence (P15692 other isoform, or with tags, fused parts or gaps): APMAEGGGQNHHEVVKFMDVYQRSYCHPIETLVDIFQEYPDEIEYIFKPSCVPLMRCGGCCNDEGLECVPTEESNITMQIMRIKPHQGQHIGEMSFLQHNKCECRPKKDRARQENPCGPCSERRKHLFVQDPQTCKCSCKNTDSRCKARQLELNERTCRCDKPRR

Usually Kd stands for the constant that tells how readily two partners part at equilibrium. High values mean lower affinity, low ones higher affinity. The molecule CGGAAUCAGUGAAUGCUUAUACAUCCG (ssRNA, 2'-F pyrimidines, 2'-OMe purines except two 2'-OH purines) [t44OMe] displayed a Kd in the series with VEGF165 [1] of over 100000 pM.

B1: t22 (ssRNA)
RNA: GACGAUGCGGUAGGAAGAAUUGGAAGCGCT
modifications: 2'-F pyrimidines, 2'-OH purines, 3'-3' dT cap [30 (3'-3' dT cap); 2'-F pyrimidines 3,6,8,11,20,21,27,29]
In the series with VEGF165 [2], B1 gave a Kd of 70 pM. This lies in the picomolar range.

B2: t2 (ssRNA)
RNA: GGCGAACCGAUGGAAUUUUUGGACGCUCGCCT
modifications: 2'-F pyrimidines, 2'-OH purines, 3'-3' dT cap [32 (3'-3' dT cap); 2'-F pyrimidines 3,7,8,11,16,17,18,19,20,24,26,27,28,30,31]
B2 showed a Kd with VEGF165 [2] of 20 pM.
On the same count and under the same terms, with GACGAUGCGGUAGGAAGAAUUGGAAGCGC (ssRNA, 2'-F pyrimidines, 2'-OMe purines except 2'-OH at A12, G22) [t22OMe (OH-12,22)] the figure was 90 pM.

B3: t22e (ssRNA)
RNA: GGUAGGAAGAAUUGGAAGCGCT
modifications: 2'-F pyrimidines, 2'-OH purines, 3'-3' dT cap [22 (3'-3' dT cap); 2'-F pyrimidines 3,12,13,19,21]
B3: in the series with VEGF165 [2], the Kd stood at 200 pM.
